In PMC2719906 one finds stoichiometry N data, which are given here for 1 substance.

This test addresses WASP GBD (GTPase binding domain, residues 242-310) (UniProt P42768). In words: NMR titration.

WASP GBD (GTPase binding domain, residues 242-310), sequence (P42768 242-310): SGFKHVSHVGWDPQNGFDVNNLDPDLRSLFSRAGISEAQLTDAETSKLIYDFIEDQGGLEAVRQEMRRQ
EspFU R5 (five-repeat fragment), sequence (P0DJ88 80-314): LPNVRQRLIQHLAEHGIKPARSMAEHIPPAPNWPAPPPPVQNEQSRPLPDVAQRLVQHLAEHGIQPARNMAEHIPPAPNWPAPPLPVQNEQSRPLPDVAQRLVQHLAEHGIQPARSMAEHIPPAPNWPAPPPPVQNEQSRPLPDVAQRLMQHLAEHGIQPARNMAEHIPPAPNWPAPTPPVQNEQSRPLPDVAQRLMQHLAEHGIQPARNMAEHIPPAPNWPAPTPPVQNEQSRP

The term stoichiometry N denotes a count of units in the complex or per binding partner. Take “EspFU R5 (five-repeat fragment) (from UniProt P0DJ88 80-314) (domain or fragment)”: the stoichiometry N was 0.2 EspFU:GBD.
